Target: the molecule itself
Assay: SEC; analytical gel filtration chromatography of purified AA-LCKS; conditions not given

B1: LPS-specific CMP-Kdo synthetase (KdsB) from Aquifex aeolicus (enzyme)
chain: MRRAVIIPARLGSTRLKEKPLKNLLGKPLIRWVVEGLVKTGERVILATDSERVKEVVEDLCEVFLTPSDLPSGSDRVLYVVRDLDVDLIINYQGDEPFVYEEDIKLIFRELEKGERVVTLARKDKEAYERPEDVKVVLDREGYALYFSRSPIPYFRKNDTFYPLKHVGIYGFRKETLMEFGAMPPSKLEQIEGLEQLRLLENGIKIKVLITENYYHGVDTEEDLKIVEEKLKNL
notes: CMP-Kdo synthetase KdsB (EC 2.7.7.38) of Aquifex aeolicus; the structure describes residues 2-234 (N-terminal domain 2-91 and 220-234, C-terminal domain 100-210); monomer 27 kDa by SDS-PAGE; No tag is mentioned; In the crystal the protein carries CTP and two Mg2+ ions; also called AA-LCKS; CKS
For B1, the “stoichiometry N” value was 2.
